From patent US12698507B2, “Methods and compositions for conferring and/or enhancing herbicide tolerance using protoporphyrinogen IX oxidase of various cyanobacteria or variant thereof” (FarmHannong Co., Ltd., priority 2019, dated 2026) come the findings set out here.

The assay concerns PPO-deficient BT3 E. coli (ΔPPO). Description: PPO-inhibiting herbicide tolerance test of PPO variants in E. coli (growth on herbicide-containing LB agar). The assay is classed as cell-based. Conditions: CyPPO19 variants in BT3 (ΔPPO) E. coli; LB agar with 0 to 2,000 μM herbicide, 37° C., dark, 16-20 hours. The method in brief:
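Tolerance was scored against wild-type enzyme: '−' for equal growth, one '+' per 10-fold gain, up to '+++++'. ΔPPO BT3 cells carrying variant plasmids, spotted as a 10-fold dilution series from OD600=0.5, grew 16-20 h at 37° C. in the dark on ampicillin LB agar containing 0 to 2,000 μM herbicide.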

Where a chain is given by its changes, count along the chain named. Names and notes keep the numbering of the source.

B1: CyPPO19 I408R + F360M: variant of CyPPO19 PPO protein (SEQ ID NO: 1) (protein)
chain: MSEVDVAIVGGGLSGLSLAWRLQQSAPQYSVVLLEASDRLGGNITTQTAEGFVWELGPNSFAPTPALLQLIAEVGLQSELIRGDRHLPRYIYWRGQLYPLQPTRPLALATSNLLSPWGKVRAALGALGFVPPYLGSGDESVNSFFRRHLGQEVAERLVAPFVSGVYAGDPQQLSAAAAFRRIAQLEKLGGGLIAGALHLRRQQAPKPKPPTSVQMRPGELGSFKEGLAALPRAIAQQLKAPIHLQTPVQEITPDPKGGYLLRSGEQTWRARSVVLATPAYQTAELVAPFQPAIARVLATIPYPTVACVVLAYPAGLGRSVRPGFGVLIPRSQGIRTLGTIWSSCLFPQRTPAGWQVFTSMIGGATDPDLASLSEEAIVQQVQQDLNRLLDLPAAKARLLGMKVWRRARPQYMVGYPEQWQQVTHALSQTPGLFLCSNYAEGVALGDRVEHGNRTAAAVAAYLSGGQP
modifications: Synthetic_PPO of Thermosynechococcus elongatus PKUAC-SCTE542 (comprising GenBank No. CP032152.1)
Regarding B1, the “tolerance level relative to wild type, Carfentrazone” value was “+ (‘+’ per each 10-fold resistance)”; the “tolerance level relative to wild type, Flumioxazin” value is “++ (‘+’ per each 10-fold resistance)”; the “tolerance level relative to wild type, Fomesafen” value is recorded as “+ (‘+’ per each 10-fold resistance)”; the “tolerance level relative to wild type, Oxyfluorfen” value is on record as “+ (‘+’ per each 10-fold resistance)”. Besides, the “tolerance level relative to wild type, Saflufenacil” value is on record as “++ (‘+’ per each 10-fold resistance)”; the “tolerance level relative to wild type, Sulfentrazone” value is on record as “+ (‘+’ per each 10-fold resistance)”; the “tolerance level relative to wild type, Tiafenacil” value was “+++ (‘+’ per each 10-fold resistance)”.

B2: CyPPO19 I408W + F360T: variant of CyPPO19 PPO protein (SEQ ID NO: 1) (protein)
chain: B1 chain with M360T, R408W
modifications: Synthetic_PPO of Thermosynechococcus elongatus PKUAC-SCTE542 (comprising GenBank No. CP032152.1)
Consider B2, for which the “tolerance level relative to wild type, Carfentrazone” value is reported as “+ (‘+’ per each 10-fold resistance)”; the “tolerance level relative to wild type, Flumioxazin” value is reported as “+ (‘+’ per each 10-fold resistance)”; the “tolerance level relative to wild type, Fomesafen” value was “+ (‘+’ per each 10-fold resistance)”; the “tolerance level relative to wild type, Oxyfluorfen” value was “+ (‘+’ per each 10-fold resistance)”. Moreover, the “tolerance level relative to wild type, Saflufenacil” value is given as “++ (‘+’ per each 10-fold resistance)”; the “tolerance level relative to wild type, Sulfentrazone” value is reported as “+ (‘+’ per each 10-fold resistance)”; the “tolerance level relative to wild type, Tiafenacil” value is listed as “++ (‘+’ per each 10-fold resistance)”.

B3: CyPPO19 I408W + F360V: variant of CyPPO19 PPO protein (SEQ ID NO: 1) (protein)
chain: B1 chain with M360V, R408W
modifications: Synthetic_PPO of Thermosynechococcus elongatus PKUAC-SCTE542 (comprising GenBank No. CP032152.1)
In the case of B3, the “tolerance level relative to wild type, Carfentrazone” value is on record as “+ (‘+’ per each 10-fold resistance)”; the “tolerance level relative to wild type, Flumioxazin” value is recorded as “++++ (‘+’ per each 10-fold resistance)”; the “tolerance level relative to wild type, Fomesafen” value is “+++ (‘+’ per each 10-fold resistance)”; the “tolerance level relative to wild type, Oxyfluorfen” value is given as “++ (‘+’ per each 10-fold resistance)”. Also, the “tolerance level relative to wild type, Saflufenacil” value is “+++ (‘+’ per each 10-fold resistance)”; the “tolerance level relative to wild type, Sulfentrazone” value is reported as “+++ (‘+’ per each 10-fold resistance)”; the “tolerance level relative to wild type, Tiafenacil” value is on record as “++++ (‘+’ per each 10-fold resistance)”.

B4: CyPPO19 R89A + V165C + F360I: variant of CyPPO19 PPO protein (SEQ ID NO: 1) (protein)
chain: B1 chain with R89A, V165C, M360I, R408I
modifications: Synthetic_PPO of Thermosynechococcus elongatus PKUAC-SCTE542 (comprising GenBank No. CP032152.1)
Take B4: the “tolerance level relative to wild type, Carfentrazone” value was “+ (‘+’ per each 10-fold resistance)”; the “tolerance level relative to wild type, Flumioxazin” value is “++++ (‘+’ per each 10-fold resistance)”; the “tolerance level relative to wild type, Fomesafen” value is listed as “++ (‘+’ per each 10-fold resistance)”; the “tolerance level relative to wild type, Oxyfluorfen” value was “++ (‘+’ per each 10-fold resistance)”. Besides, the “tolerance level relative to wild type, Saflufenacil” value is “++++ (‘+’ per each 10-fold resistance)”; the “tolerance level relative to wild type, Sulfentrazone” value is listed as “+++ (‘+’ per each 10-fold resistance)”; the “tolerance level relative to wild type, Tiafenacil” value was “++++ (‘+’ per each 10-fold resistance)”.

B5: CyPPO19 R89A + A167C + F360L: variant of CyPPO19 PPO protein (SEQ ID NO: 1) (protein)
chain: B1 chain with R89A, A167C, M360L, R408I
modifications: Synthetic_PPO of Thermosynechococcus elongatus PKUAC-SCTE542 (comprising GenBank No. CP032152.1)
Regarding B5, the “tolerance level relative to wild type, Carfentrazone” value is reported as “++ (‘+’ per each 10-fold resistance)”; the “tolerance level relative to wild type, Flumioxazin” value is “++++ (‘+’ per each 10-fold resistance)”; the “tolerance level relative to wild type, Fomesafen” value is reported as “++ (‘+’ per each 10-fold resistance)”; the “tolerance level relative to wild type, Oxyfluorfen” value is on record as “+++ (‘+’ per each 10-fold resistance)”. For the same molecule, the “tolerance level relative to wild type, Saflufenacil” value was “++++ (‘+’ per each 10-fold resistance)”; the “tolerance level relative to wild type, Sulfentrazone” value is “++++ (‘+’ per each 10-fold resistance)”; the “tolerance level relative to wild type, Tiafenacil” value is “++++ (‘+’ per each 10-fold resistance)”.

B6: CyPPO19 R89A + V165C + F360V: variant of CyPPO19 PPO protein (SEQ ID NO: 1) (protein)
chain: B1 chain with R89A, V165C, M360V, R408I
modifications: Synthetic_PPO of Thermosynechococcus elongatus PKUAC-SCTE542 (comprising GenBank No. CP032152.1)
Take B6: the “tolerance level relative to wild type, Carfentrazone” value is on record as “+ (‘+’ per each 10-fold resistance)”; the “tolerance level relative to wild type, Flumioxazin” value was “++++ (‘+’ per each 10-fold resistance)”; the “tolerance level relative to wild type, Fomesafen” value was “+ (‘+’ per each 10-fold resistance)”; the “tolerance level relative to wild type, Oxyfluorfen” value is given as “+ (‘+’ per each 10-fold resistance)”. Moreover, the “tolerance level relative to wild type, Saflufenacil” value was “++++ (‘+’ per each 10-fold resistance)”; the “tolerance level relative to wild type, Sulfentrazone” value is recorded as “+++ (‘+’ per each 10-fold resistance)”; the “tolerance level relative to wild type, Tiafenacil” value is recorded as “++++ (‘+’ per each 10-fold resistance)”.

B7: CyPPO19 R89A + A167I + F360V: variant of CyPPO19 PPO protein (SEQ ID NO: 1) (protein)
chain: B1 chain with R89A, A167I, M360V, R408I
modifications: Synthetic_PPO of Thermosynechococcus elongatus PKUAC-SCTE542 (comprising GenBank No. CP032152.1)
Turning to B7, the “tolerance level relative to wild type, Carfentrazone” value is “+ (‘+’ per each 10-fold resistance)”; the “tolerance level relative to wild type, Flumioxazin” value is “+++++ (until ‘+++++’ as maximal resistance)”; the “tolerance level relative to wild type, Fomesafen” value is given as “+++ (‘+’ per each 10-fold resistance)”; the “tolerance level relative to wild type, Oxyfluorfen” value is “+++ (‘+’ per each 10-fold resistance)”. Also, the “tolerance level relative to wild type, Saflufenacil” value was “+++++ (until ‘+++++’ as maximal resistance)”; the “tolerance level relative to wild type, Sulfentrazone” value is “+++++ (until ‘+++++’ as maximal resistance)”; the “tolerance level relative to wild type, Tiafenacil” value was “+++++ (until ‘+++++’ as maximal resistance)”.

B8: CyPPO19 R89A + V165S + F360M: variant of CyPPO19 PPO protein (SEQ ID NO: 1) (protein)
chain: B1 chain with R89A, V165S, R408I
modifications: Synthetic_PPO of Thermosynechococcus elongatus PKUAC-SCTE542 (comprising GenBank No. CP032152.1)
With B8, the “tolerance level relative to wild type, Carfentrazone” value was “+ (‘+’ per each 10-fold resistance)”; the “tolerance level relative to wild type, Flumioxazin” value is “++++ (‘+’ per each 10-fold resistance)”; the “tolerance level relative to wild type, Fomesafen” value was “+++ (‘+’ per each 10-fold resistance)”; the “tolerance level relative to wild type, Oxyfluorfen” value is given as “+++ (‘+’ per each 10-fold resistance)”. Moreover, the “tolerance level relative to wild type, Saflufenacil” value was “++++ (‘+’ per each 10-fold resistance)”; the “tolerance level relative to wild type, Sulfentrazone” value is given as “+++ (‘+’ per each 10-fold resistance)”; the “tolerance level relative to wild type, Tiafenacil” value was “++++ (‘+’ per each 10-fold resistance)”.

B9: CyPPO19 I408R + F360L: variant of CyPPO19 PPO protein (SEQ ID NO: 1) (protein)
chain: B1 chain with M360L
modifications: Synthetic_PPO of Thermosynechococcus elongatus PKUAC-SCTE542 (comprising GenBank No. CP032152.1)
For the molecule B9, the “tolerance level relative to wild type, Carfentrazone” value was “+ (‘+’ per each 10-fold resistance)”; the “tolerance level relative to wild type, Flumioxazin” value is listed as “+ (‘+’ per each 10-fold resistance)”; the “tolerance level relative to wild type, Fomesafen” value is “+ (‘+’ per each 10-fold resistance)”; the “tolerance level relative to wild type, Oxyfluorfen” value is given as “+ (‘+’ per each 10-fold resistance)”. The “tolerance level relative to wild type, Saflufenacil” value is reported as “+ (‘+’ per each 10-fold resistance)”; the “tolerance level relative to wild type, Sulfentrazone” value is given as “+ (‘+’ per each 10-fold resistance)”; the “tolerance level relative to wild type, Tiafenacil” value is given as “++ (‘+’ per each 10-fold resistance)”.
